According to the RNAGym collection of RNA variant scans (doi:10.1093/molbev/msab373):

B1: Azoarcus group I ribozyme (parent)
chain: GUGCCUUGCGCCGGGAAACCACGCAAGGGAUGGUGUCAAAUUCGGCGAAACCUAAGCGCCCGCCCGGGCGUAUGGCAACGCCGAGCCAAGCUUCGGCGCCUGCGCCGAUGAAGGUGUAGAGACUAGACGGCACCCACCUAAGGCAAACGCUAUGGUGAAGGCAUAGUCCAGGGAGUGGCGAAAGUCACACAAACCGG

Variants of: B1
Assay: reverse-splicing fitness (ratio to wild type); higher = more active; in vitro selection; Mg2+ level not given
Summary of the method: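 An in vitro group I ribozyme library with randomized positions was T7-transcribed and gel-purified. In triplicate, 10 pmol RNA in EPPS pH 7.5 was reacted with 50 pmoles of a 30-nt RNA substrate for 1 h at 37 °C across several added MgCl2 levels (1–48 mM), then stopped with EDTA. Products were reverse transcribed from a substrate-complementary primer, PCR-amplified and sequenced (HiSeq 4000). Fitness is a variant's read proportion after selection over that before, normalised to wild type.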
For GUGCCUUGCGCCGGGAAACCACGCAAGGGAUGGUGUCAAAUUCGGCGAAACCUAAGCGCCCGCCCGGGCGUAUGGCAACGCAGAGCCAAGCUUCGGCGCCUGCGCCGAUGCAGGUGUAGAGACUAGACGGCACCCACCUAAGGCCAACGGUAUGGUGAAGGCAUAGUCAAGGGAGGGGCGAAAGUCACACAAACCGG, the reverse-splicing fitness was 0.00742.
With GUGCCUUGCGCCGGGAAACCACGCAAGGGAUGGUGUCAAAUUCGGCGAAACCUAAGCGCCCGCCCGGGCGUAUGGCAACGCAGAGCCAAGCUUCGGCGCCUGCGCCGAUGCAGGUGUAGAGACUAGACGGCACCCACCUAAGGCCAACGGUAUGGUGAAGGCAUAGUCAAGGGAGCGGCGAAAGUCACACAAACCGG the reverse-splicing fitness was 0.00911.
In the case of GUGCCUUGCGCCGGGAAACCACGCAAGGGAUGGUGUCAAAUUCGGCGAAACCUAAGCGCCCGCCCGGGCGUAUGGCAACGCAGAGCCAAGCUUCGGCGCCUGCGCCGAUGCAGGUGUAGAGACUAGACGGCACCCACCUAAGGCCAACGGUAUGGUGAAGGCAUAGUCAAGGGAGAGGCGAAAGUCACACAAACCGG, the reverse-splicing fitness is reported as 0.00837.
GUGCCUUGCGCCGGGAAACCACGCAAGGGAUGGUGUCAAAUUCGGCGAAACCUAAGCGCCCGCCCGGGCGUAUGGCAACGCAGAGCCAAGCUUCGGCGCCUGCGCCGAUGCAGGUGUAGAGACUAGACGGCACCCACCUAAGGCCAACGUUAUGGUGAAGGCAUAGUCAAGGGAGGGGCGAAAGUCACACAAACCGG gave a reverse-splicing fitness of 0.0095.
GUGCCUUGCGCCGGGAAACCACGCAAGGGAUGGUGUCAAAUUCGGCGAAACCUAAGCGCCCGCCCGGGCGUAUGGCAACGCAGAGCCAAGCUUCGGCGCCUGCGCCGAUGCAGGUGUAGAGACUAGACGGCACCCACCUAAGGCCAACGUUAUGGUGAAGGCAUAGUCAAGGGAGCGGCGAAAGUCACACAAACCGG showed a reverse-splicing fitness of 0.01.
GUGCCUUGCGCCGGGAAACCACGCAAGGGAUGGUGUCAAAUUCGGCGAAACCUAAGCGCCCGCCCGGGCGUAUGGCAACGCAGAGCCAAGCUUCGGCGCCUGCGCCGAUGCAGGUGUAGAGACUAGACGGCACCCACCUAAGGCCAACGUUAUGGUGAAGGCAUAGUCAAGGGAGAGGCGAAAGUCACACAAACCGG showed a reverse-splicing fitness of 0.0127.
For GUGCCUUGCGCCGGGAAACCACGCAAGGGAUGGUGUCAAAUUCGGCGAAACCUAAGCGCCCGCCCGGGCGUAUGGCAACGCAGAGCCAAGCUUCGGCGCCUGCGCCGAUGCAGGUGUAGAGACUAGACGGCACCCACCUAAGGCCAACGUUAUGGUGAAGGCAUAGUCUAGGGAGGGGCGAAAGUCACACAAACCGG, the reverse-splicing fitness was 0.00776.
Variant GUGCCUUGCGCCGGGAAACCACGCAAGGGAUGGUGUCAAAUUCGGCGAAACCUAAGCGCCCGCCCGGGCGUAUGGCAACGCAGAGCCAAGCUUCGGCGCCUGCGCCGAUGCAGGUGUAGAGACUAGACGGCACCCACCUAAGGCCAACGUUAUGGUGAAGGCAUAGUCUAGGGAGAGGCGAAAGUCACACAAACCGG has a reverse-splicing fitness of 0.0133.
For GUGCCUUGCGCCGGGAAACCACGCAAGGGAUGGUGUCAAAUUCGGCGAAACCUAAGCGCCCGCCCGGGCGUAUGGCAACGCAGAGCCAAGCUUCGGCGCCUGCGCCGAUGCAGGUGUAGAGACUAGACGGCACCCACCUAAGGCCAACGUUAUGGUGAAGGCAUAGUCUAGGGAGCGGCGAAAGUCACACAAACCGG, the reverse-splicing fitness was 0.0108.
Work on GUGCCUUGCGCCGGGAAACCACGCAAGGGAUGGUGUCAAAUUCGGCGAAACCUAAGCGCCCGCCCGGGCGUAUGGCAACGCAGAGCCAAGCUUCGGCGCCUGCGCCGAUGCAGGUGUAGAGACUAGACGGCACCCACCUAAGGCCAACGUUAUGGUGAAGGCAUAGUCCAGGGAGAGGCGAAAGUCACACAAACCGG yielded a reverse-splicing fitness of 0.0236.
For GUGCCUUGCGCCGGGAAACCACGCAAGGGAUGGUGUCAAAUUCGGCGAAACCUAAGCGCCCGCCCGGGCGUAUGGCAACGCAGAGCCAAGCUUCGGCGCCUGCGCCGAUGCAGGUGUAGAGACUAGACGGCACCCACCUAAGGCCAACGUUAUGGUGAAGGCAUAGUCCAGGGAGCGGCGAAAGUCACACAAACCGG, the reverse-splicing fitness was 0.0355.
In the case of GUGCCUUGCGCCGGGAAACCACGCAAGGGAUGGUGUCAAAUUCGGCGAAACCUAAGCGCCCGCCCGGGCGUAUGGCAACGCAGAGCCAAGCUUCGGCGCCUGCGCCGAUGCAGGUGUAGAGACUAGACGGCACCCACCUAAGGCCAACGUUAUGGUGAAGGCAUAGUCGAGGGAGGGGCGAAAGUCACACAAACCGG, the reverse-splicing fitness is reported as 0.00845.
GUGCCUUGCGCCGGGAAACCACGCAAGGGAUGGUGUCAAAUUCGGCGAAACCUAAGCGCCCGCCCGGGCGUAUGGCAACGCAGAGCCAAGCUUCGGCGCCUGCGCCGAUGCAGGUGUAGAGACUAGACGGCACCCACCUAAGGCCAACGUUAUGGUGAAGGCAUAGUCGAGGGAGAGGCGAAAGUCACACAAACCGG showed a reverse-splicing fitness of 0.0253.
For GUGCCUUGCGCCGGGAAACCACGCAAGGGAUGGUGUCAAAUUCGGCGAAACCUAAGCGCCCGCCCGGGCGUAUGGCAACGCAGAGCCAAGCUUCGGCGCCUGCGCCGAUGCAGGUGUAGAGACUAGACGGCACCCACCUAAGGCCAACGUUAUGGUGAAGGCAUAGUCGAGGGAGCGGCGAAAGUCACACAAACCGG, the reverse-splicing fitness was 0.0195.
GUGCCUUGCGCCGGGAAACCACGCAAGGGAUGGUGUCAAAUUCGGCGAAACCUAAGCGCCCGCCCGGGCGUAUGGCAACGCAGAGCCAAGCUUCGGCGCCUGCGCCGAUGCAGGUGUAGAGACUAGACGGCACCCACCUAAGGCCAACGGUAUGGUGAAGGCAUAGUCCAGGGAGGGGCGAAAGUCACACAAACCGG gave a reverse-splicing fitness of 0.00408.
Work on GUGCCUUGCGCCGGGAAACCACGCAAGGGAUGGUGUCAAAUUCGGCGAAACCUAAGCGCCCGCCCGGGCGUAUGGCAACGCAGAGCCAAGCUUCGGCGCCUGCGCCGAUGCAGGUGUAGAGACUAGACGGCACCCACCUAAGGCCAACGGUAUGGUGAAGGCAUAGUCCAGGGAGAGGCGAAAGUCACACAAACCGG yielded a reverse-splicing fitness of 0.00906.
Variant GUGCCUUGCGCCGGGAAACCACGCAAGGGAUGGUGUCAAAUUCGGCGAAACCUAAGCGCCCGCCCGGGCGUAUGGCAACGCAGAGCCAAGCUUCGGCGCCUGCGCCGAUGCAGGUGUAGAGACUAGACGGCACCCACCUAAGGCCAACGGUAUGGUGAAGGCAUAGUCCAGGGAGCGGCGAAAGUCACACAAACCGG has a reverse-splicing fitness of 0.016.
GUGCCUUGCGCCGGGAAACCACGCAAGGGAUGGUGUCAAAUUCGGCGAAACCUAAGCGCCCGCCCGGGCGUAUGGCAACGCAGAGCCAAGCUUCGGCGCCUGCGCCGAUGCAGGUGUAGAGACUAGACGGCACCCACCUAAGGCCAACGUUAUGGUGAAGGCAUAGUCUAGGGAGUGGCGAAAGUCACACAAACCGG showed a reverse-splicing fitness of 0.0121.
GUGCCUUGCGCCGGGAAACCACGCAAGGGAUGGUGUCAAAUUCGGCGAAACCUAAGCGCCCGCCCGGGCGUAUGGCAACGCAGAGCCAAGCUUCGGCGCCUGCGCCGAUGCAGGUGUAGAGACUAGACGGCACCCACCUAAGGCCAACGUUAUGGUGAAGGCAUAGUCAAGGGAGUGGCGAAAGUCACACAAACCGG gave a reverse-splicing fitness of 0.00801.
In the case of GUGCCUUGCGCCGGGAAACCACGCAAGGGAUGGUGUCAAAUUCGGCGAAACCUAAGCGCCCGCCCGGGCGUAUGGCAACGCAGAGCCAAGCUUCGGCGCCUGCGCCGAUGCAGGUGUAGAGACUAGACGGCACCCACCUAAGGCCAACGUUAUGGUGAAGGCAUAGUCGAGGGAGUGGCGAAAGUCACACAAACCGG, the reverse-splicing fitness is reported as 0.0076.
GUGCCUUGCGCCGGGAAACCACGCAAGGGAUGGUGUCAAAUUCGGCGAAACCUAAGCGCCCGCCCGGGCGUAUGGCAACGCAGAGCCAAGCUUCGGCGCCUGCGCCGAUGCAGGUGUAGAGACUAGACGGCACCCACCUAAGGCCAACGGUAUGGUGAAGGCAUAGUCGAGGGAGCGGCGAAAGUCACACAAACCGG gave a reverse-splicing fitness of 0.00759.
GUGCCUUGCGCCGGGAAACCACGCAAGGGAUGGUGUCAAAUUCGGCGAAACCUAAGCGCCCGCCCGGGCGUAUGGCAACGCAGAGCCAAGCUUCGGCGCCUGCGCCGAUGCAGGUGUAGAGACUAGACGGCACCCACCUAAGGCCAACGGUAUGGUGAAGGCAUAGUCGAGGGAGAGGCGAAAGUCACACAAACCGG gave a reverse-splicing fitness of 0.00778.
Work on GUGCCUUGCGCCGGGAAACCACGCAAGGGAUGGUGUCAAAUUCGGCGAAACCUAAGCGCCCGCCCGGGCGUAUGGCAACGCAGAGCCAAGCUUCGGCGCCUGCGCCGAUGCAGGUGUAGAGACUAGACGGCACCCACCUAAGGCCAACGGUAUGGUGAAGGCAUAGUCGAGGGAGGGGCGAAAGUCACACAAACCGG yielded a reverse-splicing fitness of 0.00714.
Work on GUGCCUUGCGCCGGGAAACCACGCAAGGGAUGGUGUCAAAUUCGGCGAAACCUAAGCGCCCGCCCGGGCGUAUGGCAACGCAGAGCCAAGCUUCGGCGCCUGCGCCGAUGCAGGUGUAGAGACUAGACGGCACCCACCUAAGGCCAACGUUAUGGUGAAGGCAUAGUCCAGGGAGUGGCGAAAGUCACACAAACCGG yielded a reverse-splicing fitness of 0.0486.
Variant GUGCCUUGCGCCGGGAAACCACGCAAGGGAUGGUGUCAAAUUCGGCGAAACCUAAGCGCCCGCCCGGGCGUAUGGCAACGCAGAGCCAAGCUUCGGCGCCUGCGCCGAUGCAGGUGUAGAGACUAGACGGCACCCACCUAAGGCCAACGGUAUGGUGAAGGCAUAGUCUAGGGAGUGGCGAAAGUCACACAAACCGG has a reverse-splicing fitness of 0.0102.
In the case of GUGCCUUGCGCCGGGAAACCACGCAAGGGAUGGUGUCAAAUUCGGCGAAACCUAAGCGCCCGCCCGGGCGUAUGGCAACGCAGAGCCAAGCUUCGGCGCCUGCGCCGAUGCAGGUGUAGAGACUAGACGGCACCCACCUAAGGCCAACGGUAUGGUGAAGGCAUAGUCGAGGGAGUGGCGAAAGUCACACAAACCGG, the reverse-splicing fitness is reported as 0.00663.
With GUGCCUUGCGCCGGGAAACCACGCAAGGGAUGGUGUCAAAUUCGGCGAAACCUAAGCGCCCGCCCGGGCGUAUGGCAACGCAGAGCCAAGCUUCGGCGCCUGCGCCGAUGCAGGUGUAGAGACUAGACGGCACCCACCUAAGGCCAACGGUAUGGUGAAGGCAUAGUCAAGGGAGUGGCGAAAGUCACACAAACCGG the reverse-splicing fitness was 0.00764.
For GUGCCUUGCGCCGGGAAACCACGCAAGGGAUGGUGUCAAAUUCGGCGAAACCUAAGCGCCCGCCCGGGCGUAUGGCAACGCAGAGCCAAGCUUCGGCGCCUGCGCCGAUGCAGGUGUAGAGACUAGACGGCACCCACCUAAGGCCAACGGUAUGGUGAAGGCAUAGUCUAGGGAGGGGCGAAAGUCACACAAACCGG, the reverse-splicing fitness was 0.00706.
GUGCCUUGCGCCGGGAAACCACGCAAGGGAUGGUGUCAAAUUCGGCGAAACCUAAGCGCCCGCCCGGGCGUAUGGCAACGCAGAGCCAAGCUUCGGCGCCUGCGCCGAUGCAGGUGUAGAGACUAGACGGCACCCACCUAAGGCCAACGGUAUGGUGAAGGCAUAGUCUAGGGAGCGGCGAAAGUCACACAAACCGG showed a reverse-splicing fitness of 0.0112.
In the case of GUGCCUUGCGCCGGGAAACCACGCAAGGGAUGGUGUCAAAUUCGGCGAAACCUAAGCGCCCGCCCGGGCGUAUGGCAACGCAGAGCCAAGCUUCGGCGCCUGCGCCGAUGCAGGUGUAGAGACUAGACGGCACCCACCUAAGGCCAACGGUAUGGUGAAGGCAUAGUCUAGGGAGAGGCGAAAGUCACACAAACCGG, the reverse-splicing fitness is reported as 0.00753.
